experiment: label from the status in PepcDB records

**Q.** With “MTSFQSTLDDDEDGIAEELAASQREISVAEFFEKNKHMLGFDSGARGLVTAVKEAVDNALDATEEAGILPDIYVEISEGRDYYTLIVEDNGPGITNAQIPKIFGKLLYGSRFHAREQSRGQQGIGISAAVLYSQLTSGKPVRIESRTQDSETANVYELIIDTDTNEPEISAETEVSAAKSDLRGTHGTRIEMALDANMRARGQLHDYIKHTAVVNPHARIELQEPGGELKSERAEEASLPAETDEILPHPHGVELGTLIKMLAETDSHSVSGFLQSEFTRVGSKTATGIIDAFRDEHFGREMRWRPPADADLEATVADAVANKDATHTAVFARTVADAVRDADSIAPAELGALVADAAADAQDDTGTSFGETVQANVVAAVRDALTSDRVADVLGPVDEATTVQKDDATVRGLAERIAAKFESGGDTDRVTRDTLDEYVFRAAENTAEYADATIGETARENVADALWARMATVPDDPPNTSALADDRDAASDLLAAMASVNVMAPPTSCLSPIEADQLEAGLRTEFDADFYAAATRDADVHGGDPFIVEAGIAYGGDIDSEGGVQLMRFANRVPLVYQRGACATTDVLGDIGWRNYNLSQPGGSGLPQGPAVIMVHVASTNVPFTSESKDAIANVPEIEAEIELAVREAARELKSFLQKRQSMRKRQQKQDVIMDILPTMAEKVGELTGRGGVDVSDSLARIMNNVLVERARSDDGQTVTLRVENHGTGSVDVDVTDIVSAEPDGVGDDASVVAMDDEYFVKWTPAVAGDDAAELTYSVDADADCELSVSGVADARLTVSEADT” as the sequence, how does the protein production read?
**A.** Its protein production is “failed”.

**Q.** For “MTSGSRWDGIIPHPGILAFAMALYLLGFVLDASGRPLAYGFLTGDMVVHFFTFPGLREQFIDYLLATAFWIFISNITQVTVFIFSLATFYPVLKIFVLAGALLHNLLVGWGVRGLLIYAGTLHLHLEVTGCLLSLQAALVFVRSLLGTIQHRSRGPLVTALRENLAYLIPLIILLFAIAAILEVFWSTWWVYNLTHGPVSWRYFYTHVFSVEL”, which protein production is on record?
**A.** The protein production was “failed”.

**Q.** Which protein production does the source give for “MTSPENPDLPDADDAYVDSGPGTQPASLEDLDMDSASTMRPMATQAVYRPEFDDTDGTSRGTVVTEAYDQVTMATRALSPMRRLGGGLVEIPRVPERDPLTALMTNPVVAESKRFCWNCGKPVGRSTPDGRALSEGWCPHCGSPYSFLPQLSPGDIVADQYEIKGCIAHGGLGWVYLAFDKNVNDRPVVLKGLVHSGDAEAQAIAMAERQFLAEVTHPGIVKIYNFVEHEDKHGNPVGYIVMEYVGGTSLKQARGAKLPVAEAIGYMLEILPALGYLHSIGLAYNDLKPENIMITEEQLKLIDLGAVSRLNSYGYLYGTPGYQAPEIVRTGPTVATDIYTVGRTLAALTLSLRTRRGRYVDGLPSDDPVLETYDSYHRLLRRAIDPDPRRRFTSAEEMSSQLLGVLREVVATDTGVPRPGLSTVFSPSRSTFGVDLLVAHTDVYVDGQVHSEKLTAQEIVRALPVPLVDRTDVGAPMLVASVLSEPVHTLDQLRAARHGALDTEGIDLNESVELPLMEVRALLDLGDVAKATRKLEDLAARVGWRWRLVWFKAVSEMLSADYDSATKHFTEVLDTLPGELAPKLALAATAELAGTADELKFYKTVWSTDNGVISAGFGLARAQSVAGERDMAVQTLDEVPPTSRHFTTARLTSAVTLLSGRSTSEITEQHIRDAARRVEALPDSEPRVLQIRALVLGTALDWLADNTASSNHILGFPFTEHGLKLGVEASLRALARIAPTQSHRYALVDLANSVRPMSTF” here?
**A.** The protein production was “failed”.

**Q.** Which protein production does the source give for “MTSPFHRLCRTTLAAGFLFGMASAALAVGDSNDDTNPPPKTETTKTCTGGKVWDKQRKECVTPKKNSFNDDDLYKFAREFAYAGQYENAITVLNLARNQNDPRILNYLGYANRKAGRMELGMSYYRKALQADENYILARSYMGMALVEQGDIQGARVQLVEIRDRGGEDTWAYRALLQSLNGYRTY” here?
**A.** The protein production was “failed”.

**Q.** For “MTSPLRPEDPTRVGDYDLVARIGKGGQGVVYLGKAPDGTRVAVKVMETSWASNSRARSRFAKEIEAASKVAPFCTAALLDSDINADPPYIVSEYIEGPSLRDAVLRDGPRTGAALDRLAISTATALVAIHQAGVIHRDFKPANVLLGPDGPRVIDFGIARHSEATVTATDSIVGTPAYMAPEQVEGRELTPAVDIFAWAGVMVFAATGQSPFHDETLPAIINRVLHQPPRLDGVDERLRPLLEACLAKEPERRPTAVQVLGVLVGHDPATLPQVPVEEVLENGYTAALNEQTQIAATAALPIPIGDQAPEPAPTAVMPAAEDTPAPESRTPVSGLAALAANRPADEAPASSPPSGPLRTTSGLAALVNTGENKQPTASSPGEGPPRRSAGPGHQPLPPRSTRERKTVLSWLVAAGILIIVLAGGWFLIDTFLLSPNGQSPEATPVDGTRRDTPAQDGIDDSVPSPSAIDPDTPTSSDTGYPGGELYPSLPYDDMSQTDPMEEPHLNPTIPGEGPWHSPPAGEEAPGQPHGGGAEEGGSEGGEQPGTGGPGGSGEGGAGVGRVAVSPAAP”, which protein production is on record?
**A.** The protein production was “failed”.

**Q.** With “MTSRPSSDQTWQPIDGRVALIAPASAIATDVLEATLRQLEVHGVDYHLGRHVEARYRYLAGTVEQRLEDLHNAFDMPDITAVWCLRGGYGCGQLLPGLDWGRLQAASPRPLIGFSDISVLLSAFHRHGLPAIHGPVATGLGLSPLSAPREQQERLASLASVSRLLAGIDHELPVQHLGGHKQRVEGALIGGNLTALACMAGTLGGLHAPAGSILVLEDVGEPYYRLERSLWQLLESIDARQLGAICLGSFTDCPRKEVAHSLERIFGEYAAAIEVPLYHHLPSGHGAQNRAWPYGKTAVLEGNRLRW” as the sequence, how does the protein production read?
**A.** The protein production was “not failed”.

**Q.** For “MTSTHQAAHRTGSTMRLRILIATDTYPPDVNGASYFTYRLATGLAERGHDVHVVCASASGPPRVEVQDGVVLHRMRSVPVLVHPTMRTALPLGLTGHIARIVDRLAPHVVHVQSHFTISRTALRCGRMAGVPVVLTNHFMPDNLFAHAHIPPRLHGVVGSLAWQDMIRVARTADYVTTPTQRAAELLASKGFTRTVEAVSCGIDLDRFRPRPQDRAQARAHFGLPDRETMVFVGRLDEEKRIDESIRALPVLLRHRDVQLVLAGTGQRREELERLARSLGVAERVHFLGFVPDDDLPLVYVAADLFVIGSVAELQSIATLEAMSTGLPVVAADALALPHLVRPGRNGYLYPPGDVAQLAQRLLDVLESPDRRTAMGRASRDIAQTHDHHRSLDRFEQIYTEVRPRSWTLSRSASPAARQRDTTVAA”, which protein production is on record?
**A.** Its protein production is “failed”.

**Q.** For “MTSYSLEDFNTPLECAPLARWERKRKEQLDRTSKTPNKTPQGDRFIPNRNVMNIEVSRLNLQQEYYGKENNQNSSSLLDSHMDNVEWNSGKDSPACHHYQSALASSLLQNSYHEEHPQSKILTFKQKAPKPQEGYVNSLKVLYSQNMPQISEQRKRMIRHIPQTPDRILDAPELVDDYYLNLLDWNHENILAVALGSSVYLWNASTGDIQELCNVSQDEMICSVSWVPDGHHLAVGTSMKDVQLWDTQRGRQVRKMHSHSSRVGCLAWNGPILSSGSRDTTIHHHDVRIAQHHVETLRGHEQEVCGLKWNVDGSQLASGGNDNLLMIWDHFHSNQPKYRLDHHHAAVKAIAWCPWQTHLLASGGGTADRTIKFWNTTTGACLQSIDTKSQVCALIWNRHDKEIVSSHGFSQNQLIVWKYPSMVKMAELTGHTSRVLHLSLSPDGQTVVSGAGDETLRFWRVFEASESKLKSSNKTLGHSQKSIMRTCNIR”, which protein production is on record?
**A.** The protein production was “not failed”.

**Q.** Which protein production does the source give for “MTTDIDLEQGGAFGYHRRSLDGSDVSVYYSDGEDVMSCYSYFYSTTGGSYEYEGDQSRKVSSVMSPSSSEIDDDDATAPPEKDCRICHLGVETSGGGAIELGCSCKDDLAVAHRQCAETWFKIKGDKTCEICQSVARNVGGANEMVGSTMEERELRNGEETAAGEGGGATVVENRWQPQRVVNLVLACMVFGFFISWIFHFHVSSSS” here?
**A.** Its protein production is “failed”.

**Q.** For “MTTDKQTSINLALSTINGKWKLSLMDELFQGTKRNGELMRALDGITQRVLTDRLREMEKDGLVHRESFNELPPRVEYTLTPEGYALYDALSSLCHWGETFAQKKARLNK”, which protein production is on record?
**A.** The protein production was “not failed”.

**Q.** For “MTTENTTALLLIDFQNDYFSTYNGAKNPLVGTEAAAEQGAKLLAKFRQQGLPVVHVRHEFPTDEAPFFLPGSDGAKIHPSVAAQEGEAVVLKHQINSFRDTDLKKVLDDAGIKKLVIVGAMTHMCIDAVTRAAEDLGYECAVAHDACATLDLEFNGITVPAAQVHAAFMSALSFAYANVASADELIAGL”, which protein production is on record?
**A.** Its protein production is “not failed”.

**Q.** With “MTTETFLVEIGTEELPPKALRSLAESFATHFTAELDNANITHGDVSWFAAPRRLAIKVANMAKSQADRIVEKRGPAIAQAFDAEGKPTKAAEGWARGNGITVDQAERLSTDKGEWLFYRAEVKGEAVNQLLAGMVSNALAKLPIPKLMRWGDKETHFVRPVHTVTLLLGDTLIDGEILGVQSARIIRGHRFMGEAEFTIDNADQYPEILYERGKVIADYENRKSIILHDARLAAEKLGGVADLSDSLVEEVTSLVEWPVVLTAKFEEKFLEVPAEALVYTMKGDQKYFPVYDKQGALLPHFIFVSNIESSDPQQIISGNEKVVRPRLADAEFFFKTDRKQRLEDNLPRLETVLFQKNLGSLRDKTDRIQALAGFIAEKMGADVNKATRAGLLSKCDLMTNMVFEFTDTQGVMGMHYARHDGEDEEVAVALKEQYQPRFAGDALPSNPVASAVAIAEKMDTLAGIFGIGQHPKGDKDPFALRRAALGVLRIIVEQDLPLDIEELTQEAARLYGDKLTNQNVVSDVVEFMLGRFRAWYQELGYSIDTIQAVLARRPTQPADFNARVKAVTYFRTLEEAAALAEANKRVSNILAKSADVKLNDKVLASVLKAPEEVQLAANLSVLQDKLAPLFAERKYQEALVELASLRDVVNNFFDKVMVMDKDEEIRVNRLTMLHELRELFLKVADISVLQ” as the sequence, how does the protein production read?
**A.** The protein production was “failed”.

**Q.** For “MTTFLQRDDFAVTARVLGALFYYSPESHETAPLVQALLNDDWQAQWPLDAEALAPVAAMFKTHSEESLPQAWQRLFIGPYALPSPPWGSVWLDRESVLFGDSTLALRQWMRENGIQFEMQQNEPEDHFGSLLLLAAWLAENDRHHECEQLLAWHLFPWSSRFLDVFIDHAGHPFYQALGQLARLTLAQWQAQLIIPVAVKPLFR”, which protein production is on record?
**A.** The protein production was “not failed”.

**Q.** Which protein production does the source give for “MTTIAVLGNGRVGGNLATALTRAGHEVTVADRTPGAAADTARTAQIVINATPGAGSLDRLAALRDELRDKILVDVSNATNDGPDGLPADLIYPGSSLAEHLQEALPETRVVKTLNTMLFPVMTAPATLTQTPTAFLSGEDPQAKQTVRELLTDLGWHKEWIADLGGIQTARATEAAILFVPHVIGATGFTPFAISIARLEHHHHHH” here?
**A.** Its protein production is “not failed”.

**Q.** For “MTTIHFHNVYVASRGTSVGLLEKQGPLGNRFDYTHEDNTCQQDSFEKAERYMLQEAVDATIRKSDYSIKDIEVMIGGDLINQLTSSHYFAKEFPISFLGMYAACASSSLVIGQAALWVEHQLAKTALAFTSSHVATAERQFRFPNEYGIQKKETTTCTVTGAGAVLLSRKKSKLKVASFTVGKVVDWQYNDANDMGVAMAPAAYDTLTTYFKDTNQSFQDFDLIVTGDLSKLGFAFLRDLLLQNGYCCEEKLQDCGLMIYDIVKQNVFCGGSGCACSMCVSMTKLLDLLEQQEARRIMVLATGALLSPIAIQQKESIPCIAHAIVYERS”, which protein production is on record?
**A.** Its protein production is “failed”.

**Q.** With “MTTLYANVYLLSTPQGRLLLDTGTVNHAPAFARLLRSFDPDAVVVTHSHIDHAGNAFLAARLGYPVLAHPLEHDRLLGHDLSMPYPAGQPGVGRLVSRLHPRPGAERLGALYPGDTVRGWEVVHLPGHTDGQIGLQRDGVLLAADAVLSHPRTGAHLPREGYNWDHAVALQTLKKVADLDLHTVLPGHGRALDMAQVRARAVRDDEPGDRAEDAA” as the sequence, how does the protein production read?
**A.** The protein production was “failed”.

**Q.** With “MTTNSSSNTVVVYHSGYGHTHRMAEAVAEGAEATLHAIDAEGNLSEDGWAALDAADAIIFGTPTYMGGPSWQFKKFADASSKPWFSAKWQDKVFGGFTNSASLNGDKLNTLQYLVLLAGQHGGLWVSLGIKPSNLKSSVRNDANRMGSYIAPMAQSDADAAPEEMSVGDLETARLYGARVANVARQHKSTERV” as the sequence, how does the protein production read?
**A.** Its protein production is “not failed”.

**Q.** For “MTTPSASTRAVLEEACLSVGLDTTNAQPIRIAENAVWRLPGGVVVRVARPGQSAAAAREVQVARWLTAEGVPAVRALDLPQPVAASGHPVTFWQELPPHEIGTVTDVVVLLKQLHALPKPDLPLGELDPFVRLVERIDAAITISDDDQLWLKHRLEDLKQQWASRPKGLPECVVHGDAWVGNVARTEAGPMLLDFERASFGPPEWDLVSTAVKLTTTGAVSAEEYAAFCETYGVDVTEWEGYELLANARELRMVTYAAQHAASRPEWRREAQYRIDCLRGRAGAPPWRWKGII”, which protein production is on record?
**A.** Its protein production is “failed”.

From a protein production outcome set (Wang et al. 2014)
